Assay results published in article PMC4749977, “Alp7/TACC-Alp14/TOG generates long-lived, fast-growing MTs by an unconventional mechanism” (Scientific Reports, 2016).

Assays:
[1] = biological target: T1, Alp7 with Alp14-GFP (tip tracking Alp7-14 complexes) (S. pombe, UniProt O94534 1-809; Q9URY2 1-474, biotin on the AviTag (BirA ligase co-expressed to ensure biotinylation)); test: TIRF microscopy of Alp14-GFP on dynamic microtubules; dual-TIRF; MTs nucleated by immobilized Alexa488 labeled seeds using 6 μM S. pombe tubulin doped with 2.5% (150 nM) rhodamine labeled brain tubulin; Alp14-GFP without or with Alp7; details: both partners purified
T1 construct: Alp14 of S. pombe, as the chain of m9; Alp7 of S. pombe, full length, as the chain of m2; source: each from Sf9 insect cells (baculovirus), purified, added together to the assay
T1 sequence (looked up) 1: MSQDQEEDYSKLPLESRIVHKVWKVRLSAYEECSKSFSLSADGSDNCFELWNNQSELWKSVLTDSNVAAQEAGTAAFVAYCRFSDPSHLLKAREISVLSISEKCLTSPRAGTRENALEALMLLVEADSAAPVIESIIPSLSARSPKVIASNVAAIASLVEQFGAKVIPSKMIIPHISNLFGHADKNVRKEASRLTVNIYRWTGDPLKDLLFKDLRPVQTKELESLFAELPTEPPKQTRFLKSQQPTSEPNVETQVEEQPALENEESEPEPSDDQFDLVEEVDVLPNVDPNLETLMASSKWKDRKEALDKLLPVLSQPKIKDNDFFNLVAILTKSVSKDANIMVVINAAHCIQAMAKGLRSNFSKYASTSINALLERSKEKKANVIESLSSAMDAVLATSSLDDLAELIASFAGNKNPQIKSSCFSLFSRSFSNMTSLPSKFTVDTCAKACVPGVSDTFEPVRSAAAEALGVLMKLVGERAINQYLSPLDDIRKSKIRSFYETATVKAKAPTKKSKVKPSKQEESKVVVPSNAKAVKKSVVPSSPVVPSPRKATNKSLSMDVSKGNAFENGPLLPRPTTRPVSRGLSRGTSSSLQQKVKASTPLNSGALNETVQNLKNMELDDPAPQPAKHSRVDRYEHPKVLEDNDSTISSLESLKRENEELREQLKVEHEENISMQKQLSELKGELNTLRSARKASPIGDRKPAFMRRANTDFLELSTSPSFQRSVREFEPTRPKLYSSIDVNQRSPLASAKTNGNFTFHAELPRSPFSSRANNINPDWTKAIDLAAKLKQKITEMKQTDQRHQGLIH
T1 sequence (looked up) 2: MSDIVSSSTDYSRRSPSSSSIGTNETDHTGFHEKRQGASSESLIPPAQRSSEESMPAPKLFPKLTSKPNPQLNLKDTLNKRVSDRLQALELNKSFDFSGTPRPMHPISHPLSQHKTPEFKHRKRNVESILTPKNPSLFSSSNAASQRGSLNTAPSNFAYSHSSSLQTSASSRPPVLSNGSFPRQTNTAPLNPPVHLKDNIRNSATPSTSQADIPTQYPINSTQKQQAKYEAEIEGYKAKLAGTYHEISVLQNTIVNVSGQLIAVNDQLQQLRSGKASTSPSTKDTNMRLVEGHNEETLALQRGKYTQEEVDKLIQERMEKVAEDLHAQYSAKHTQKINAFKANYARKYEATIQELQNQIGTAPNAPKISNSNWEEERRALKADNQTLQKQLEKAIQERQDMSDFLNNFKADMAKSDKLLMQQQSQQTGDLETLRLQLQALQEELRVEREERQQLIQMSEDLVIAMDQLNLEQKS

[2] = biological target: T2, Alp7-14 complex (full length Alp14 mixed with full length Alp7) (S. pombe, UniProt O94534 1-809; Q9URY2 1-474, biotin on the AviTag (BirA ligase co-expressed to ensure biotinylation)); test: glycerol gradient centrifugation; 5-40% glycerol gradient of purified Alp14, Alp7 and tubulin, alone or mixed; tubulin as GTP-tubulin where stated; fractions on SDS-PAGE with Coomassie staining; details: both partners purified
T2 construct: Alp14 of S. pombe, full length, as the chain of m1; Alp7 of S. pombe, full length, as the chain of m2; also called Alp7/TACC-Alp14/TOG; source: each from Sf9 insect cells (baculovirus), purified, then mixed
T2 sequence (looked up) 1: T1 sequence (looked up) 1
T2 sequence (looked up) 2: T1 sequence (looked up) 2

[3] = biological target: the molecule itself; test: DIC video microscopy of microtubule growth; addition of GTP-tubulin to plus and minus ends of MTs nucleated by axoneme fragments; growth rate against tubulin concentration, linear regression, apparent rate constants; 100 mM K-PIPES, 1 mM MgSO4, 2 mM EGTA, 1 mM DTT pH 6.9, 1 mM GTP, no glycerol, 25 °C

B1: S. pombe single isoform (α1β) tubulin (complex)
chain 1: MREVISVHVGQAGVQIGNACWELYCLEHGIGPDGFPTENSEVHKNNSYLNDGFGTFFSETGQGKFVPRSIYVDLEPNVIDQVRTGPYKDLFHPEQMVTGKEDASNNYARGHYTVGKEMIDSVLERIRRMADNCSGLQGFLVFHSFGGGTGSGLGALLLERLNMEYGKKSNLQFSVYPAPQVSTSVVEPYNSVLTTHATLDNSDCTFMVDNEACYDICRRNLDIERPTYENLNRLIAQVVSSITASLRFAGSLNVDLNEFQTNLVPYPRIHFPLVTYSPIVSAAKAFHESNSVQEITNQCFEPYNQMVKCDPRTGRYMATCLLYRGDVIPRDVQAAVTSIKSRRTIQFVDWCPTGFKIGICYEPPQHVPGSGIAKVNRAVCMLSNTTSIAEAWSRLDHKFDLMYSKRAFVHWYVGEGMEEGEFSEAREDLAALERDYEEVGQDSMDNEMYEADEEY
chain 2: MREIVHIQAGQCGNQVGAAFWSTIADEHGLDSAGIYHGTSEAQHERLNVYFNEAAGGKYVPRAVLVDLEPGTMDAVKSGKFGNLFRPDNIIYGQSGAGNIWAKGHYTEGAELADAVLDVVRREAEACDALQGFQLTHSLGGGTGSGMGTLLLSKIREEYPDRMMATFSVAPAPKSSDTVVEPYNATLSMHQLVENSDETFCIDNEALSSIFANTLKIKSPSYDDLNHLVSAVMAGVTTSFRFPGELNSDLRKLAVNMVPFPRLHFFMVGFAPLAAIGSSSFQAVSVPELTQQMFDANNMMVAADPRHGRYLTVAALFRGKVSMKEVDEQIRSVQTKNSAYFVEWIPDNVLKAVCSVPPKDLKMSATFIGNSTSIQEIFRRLGDQFSAMFRRKAFLHWYTGEGMDEMEFTEAESNMNDLVSEYQQYQEAGIDEGDEDYEIEEEKEPLEY
notes: alpha-1 tubulin of S. pombe, untagged, endogenous; beta tubulin of S. pombe, untagged, endogenous; Used as free heterodimer (GTP or GDP form) in the gradients and polymerised into dynamic microtubules in the microscopy assays; the assay's format tells which; also called single isoform S. pombe tubulin; S. pombe tubulin; source: purified from S. pombe single isoform strain (mmsp174): ion exchange, …
In the case of B1, the binding result [1] is reported as “binds”, the binding result [2] is reported as “binds” and the “Kd = koff/kon (critical concentration), minus end” value [3] is reported as 900 nM. For the same binder, the “Kd = koff/kon (critical concentration), plus end” value [3] was 1200 nM.
